Reference: the supplement of paper PMC10567573
± gives the standard deviation.

Assay: protein stability index of a GFP-peptide fusion (GPS, HEK-293T) (PSI 1-6); higher = more stable
Settings: c terminus: a fixed tail appended
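Further: 24-mer peptide tiles fused after GFP, lentivirally expressed, FACS-sorted into six equal bins by GFP/DsRed ratio, decoded by Illumina sequencing, PSI is the read-weighted mean bin number.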

Row | Sequence | protein stability index (treatment: DMSO) | protein stability index (treatment: MLN4924 1 uM, 8 h)
1 | EQRANDLEQIMESVKSKIGELEDE [CEP70] | 5.41 ± 0.098 | 5.39 ± 0.18
2 | KTAHDSNVLHVARLPNRQLISCSE [WDR41] | 3.6 ± 0.28 | 3.57 ± 0.35
3 | GHSSSRDDYPSRGYSDRDGYGRDR [RBMX] | 4.87 ± 0.18 | 4.88 ± 0.16
4 | PEQLVLTLLEAEPPHVLISRPSAP [ESR2] | 2.89 ± 0.31 | 3.1 ± 0.48
5 | RSRIEALELLGASFANDRENYDII [FEM1B] | 3.42 ± 0.27 | 3.52 ± 0.14
6 | VLEVRTENLKQQRSRREQFSRAPV [STX5] | 3.4 ± 0.45 | 3.63 ± 0.41
7 | RQLAYSTVGTPDYIAPEVFMQTGY [STK38L] | 3.06 ± 0.46 | 3.29 ± 0.42
8 | CMSFNPETRRLSIGLDNGTISEFI [WDFY2] | 2.42 ± 0.56 | 2.89 ± 0.38
9 | RVHAGSKAALAALCPGDLIQAING [PDLIM4] | 2.95 ± 0.15 | 3.03 ± 0.12
10 | DYVMTTLLFSDKNVNSNLITWNRV [TRIP13] | 2.4 ± 0.75 | 2.36 ± 0.62
11 | MNLMNELKQNFSKSWHDMQTTTAY [TPD52L1] | 2.62 ± 0.34 | 2.47 ± 0.15
12 | RRLAQEPLGLEVDQFLEDVRLQER [NOP53] | 4.5 ± 0.16 | 4.54 ± 0.13
13 | PWLWSEQQVCQWLLWATNEFSLVN [ETS2] | 2.76 ± 0.47 | 2.42 ± 0.46
14 | SALFAGNEWRRPIIQFVESGDDKN [TRIM29] | 4.37 ± 0.23 | 4.13 ± 0.25
15 | EVLEWYTAKDFIVGKSLTILGRTF [EFHC1] | 3.13 ± 0.62 | 2.62 ± 0.61
16 | ENEQRRLFIQKEEQLQQILKRKNK [MNAT1] | 4.38 ± 0.18 | 4.21 ± 0.2
17 | QARTQKLQGLIPGARYEVTVVSVR [TNXB] |  | 2.22 ± 0.42
18 | MSRVHGMHPKETTRQLSLAVKDGL [ZMYND11] | 3.83 ± 0.22 | 3.89 ± 0.4
19 | VVFLSPLTTFQDQLNRRGEFIQEI [OAS1] | 2.47 ± 0.5 | 2.35 ± 0.48
20 | AWKELDRNYLNYGEEGAPGKWQQQ [CHGB] | 3.47 ± 0.43 | 3.75 ± 0.67
21 | WIPQAGPPELNYGATGECQNFLDP [ZNF449] | 4.29 ± 0.18 | 4.28 ± 0.27
22 | LDLDSIIDEVRTQYEEIALKSKAE [KRT71] | 3.91 ± 0.3 | 4.21 ± 0.57
23 | VQRIMVANIEEVLQRGEALSALDS [SEC22B] | 2.85 ± 0.17 | 3.05 ± 0.39

Row | Sequence | protein stability index (treatment: DMSO) | protein stability index (treatment: MLN4924 1 uM, 8 h)
24 | PPGLPAETIKDLMRQFLRGLDFLH [CDK4] | 2.21 ± 0.075 | 2.57 ± 0.7
25 | TKFDRDGNRILDEKEQEKMRQDLE [PKD2L1] | 5.12 ± 0.34 | 5.36 ± 0.35
26 | PDLPFQIKPSENHYSLLTSQPLDR [PCDHGC5] | 3.97 ± 0.22 | 4.13 ± 0.14
27 | NASFIDGYRQQKAYIATQGPLAET [PTPRD] | 3.46 ± 0.43 | 3.53 ± 0.49
28 | LRLEWETQQELRKIREKEEWIKLD [IQUB] | 3.12 ± 0.62 | 3.44 ± 0.63
29 | ITLSQEQIQKYTDCLQFYVNSTLK [RTN1] | 2.08 ± 0.1 | 2.1 ± 0.086
30 | EDDGLQSAFTAAHELGHVFNMLHD [ADAMTS4] | 3.77 ± 0.28 | 3.9 ± 0.4
31 | MEGKPMRRCTNIRPGETGMDVTSR [KLHL20] | 4.34 ± 0.085 | 4.41 ± 0.19
32 | QATKASLKERFAFLFNSELLSDVR [BTBD1] | 2.55 ± 0.22 | 2.67 ± 0.34
33 | RDNSPFDGPGGNLAHAFQPGPGIG [MMP1] | 4.05 ± 0.39 | 4.03 ± 0.17
34 | KHAKKEREESLPNLLQYVRMPLLT [KLHL12] | 3.26 ± 0.26 | 3.28 ± 0.16
35 | YLHNHFIGEGMTKYDYLMTLHGVV [TENT5D] | 2.83 ± 0.6 | 2.48 ± 0.62
36 | LEGQSGVTIKHVACGDFFTACLTD [NEK8] | 2.75 ± 0.28 | 2.89 ± 0.47
37 | SEASKAFQMEKIEHGYENMNHFTV [TRIM55] | 3.29 ± 0.21 | 3.38 ± 0.28
38 | LRDEHRCASKYGRDWERYTAAVPY [DHCR7] | 2.67 ± 0.12 | 2.92 ± 0.2
39 | VHEHDGHLYLGSFRSPFLCRLSLQ [APMAP] | 2.73 ± 0.51 | 2.33 ± 0.41
40 | LWEAPPLGAGGGSLLPGAVEQPQP [NEK8] | 4.42 ± 0.13 | 4.36 ± 0.15
41 | CFVEFHEHRHAAAALAAMNGRKIM [TIA1] | 2.71 ± 0.14 | 2.81 ± 0.17
42 | MSADPHLASSLSPSQDERMRSPQN [NOL4L] | 5.17 ± 0.25 | 5.15 ± 0.24
43 | VISKKAKVKVPQKTAGKENHFDMH [ZNF75A] | 3.08 ± 0.24 | 3.06 ± 0.26
44 | TPIEVLCENFPEMATYLRYVRRLD [CSNK1G3] | 2.39 ± 0.3 | 2.6 ± 0.44
45 | EAEKDGVKVPTTLAEYCIKTKVPS [UBE2R2] | 5.08 ± 0.19 | 5.15 ± 0.2
